Data on 2 molecules can be found in patent publication US20110217282, “Novel Toxin-Antitoxin System” (UNIVERSITY OF MEDICINE AND DENTISTRY OF NEW JERSEY, published 2011).

Data set [1] addresses T1, YgiT (Escherichia coli, UniProt Q46864 SEQ:1-131). The experiment in a line: EMSA; shift at 10 nM and higher, none at 5 nM; 50 mM Tris-HCl pH 7.2, 50 mM KCl, poly(dI-dC), 4 C. The conditions noted are these: tags: C-terminal His; chain copies: 2 inferred; label: 5'-32P. Background: In EMSA bound probe runs differently from free probe, usually more slowly.
Data set [2] addresses T2, MqsR-YgiT complex (Escherichia coli, UniProt Q46865;Q46864 SEQ:1-98,SEQ:1-131). Nature of the data set: EMSA; shift from 5 nM; stronger than YgiT alone; MqsR:YgiT 2:1. As to conditions: tags: N-terminal His on MqsR; chain copies: 4 MqsR + 2 YgiT inferred; label: 5'-32P.
Data set [3] deals with MqsR (Escherichia coli, UniProt Q46865 SEQ:1-98). Nature of the data set: EMSA; no binding up to 80 nM. As to conditions: chain copies: 2 inferred; label: 5'-32P.
Sequence of MqsR (Q46865 whole entry): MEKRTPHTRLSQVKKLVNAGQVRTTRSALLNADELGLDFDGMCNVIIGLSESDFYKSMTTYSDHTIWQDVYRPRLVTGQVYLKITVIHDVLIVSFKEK
In data set [4] the target is T2, MqsR-YgiT complex. The experiment in a line: EMSA; shift from 10 nM; stronger than YgiT alone; MqsR:YgiT 2:1. The conditions noted are these: tags: N-terminal His on MqsR; chain copies: 4 MqsR + 2 YgiT inferred; label: 5'-32P.
Data set [5] concerns the target T1, YgiT. Nature of the data set: EMSA; shift at 20 nM and higher, none at 5 nM; 50 mM Tris-HCl pH 7.2, 50 mM KCl, poly(dI-dC), 4 C. As to conditions: tags: C-terminal His; chain copies: 2 inferred; label: 5'-32P.

T1 sequence (Q46864 whole entry): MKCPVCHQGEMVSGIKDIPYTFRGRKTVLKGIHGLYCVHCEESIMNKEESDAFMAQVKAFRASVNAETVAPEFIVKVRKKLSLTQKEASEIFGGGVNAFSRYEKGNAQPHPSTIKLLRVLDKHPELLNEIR
T2 sequence (Q46865 whole entry, chain 1 of 2): as the sequence (Q46865 whole entry) above
T2 sequence (Q46864 whole entry, chain 2 of 2): as the sequence (Q46864 whole entry) above

B1: mqsR-ygiT palindrome 1 (dsDNA)
DNA 1: CCCCTAACTAACCTTTTAGGTGCTTTTCCCC
DNA 2: GGGGAAAAGCACCTAAAAGGTTAGTTAGGGG
B1: the binding result in data set [1] is on record as “binds”; in data set [2], “binds”; in data set [3], “no binding”.

B2: mqsR-ygiT palindrome 2 (dsDNA)
DNA 1: CCCAATTAACCTTTTAGGTTATAACCC
DNA 2: GGGTTATAACCTAAAAGGTTAATTGGG
Regarding B2, the binding result in data set [3] is reported as “no binding”; in data set [4] it was “binds”; in data set [5] it was “binds”.
